Article PMC12086504 (Traffic (Copenhagen, Denmark), 2025)
One block for each binder: values may come before it.

What was measured:
[1] = target: T1, BicD^CC2‐CC3 (amino acids 318–782) (Drosophila, UniProt P16568 318-782, biotin on the biotin tag); experiment: interferometric scattering mass spectrometry
T1 sequence (looked up): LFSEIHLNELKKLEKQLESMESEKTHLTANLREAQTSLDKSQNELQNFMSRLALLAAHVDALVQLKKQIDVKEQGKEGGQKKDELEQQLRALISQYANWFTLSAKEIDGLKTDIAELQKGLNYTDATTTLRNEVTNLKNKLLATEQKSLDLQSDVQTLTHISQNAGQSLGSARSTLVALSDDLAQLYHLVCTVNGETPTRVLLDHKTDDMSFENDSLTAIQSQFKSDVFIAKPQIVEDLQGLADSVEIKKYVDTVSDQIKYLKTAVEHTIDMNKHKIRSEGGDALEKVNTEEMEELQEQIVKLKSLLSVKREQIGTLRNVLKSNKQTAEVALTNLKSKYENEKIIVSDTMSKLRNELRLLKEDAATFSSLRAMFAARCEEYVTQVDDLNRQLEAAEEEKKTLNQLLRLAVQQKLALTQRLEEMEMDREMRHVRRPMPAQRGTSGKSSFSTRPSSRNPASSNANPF

[2] = target: T1, BicD^CC2‐CC3 (amino acids 318–782); experiment: single-molecule TIRF microscopy

stoichiometry N [1]: 2 kinesins per BicD^CC2-CC3
percent of Qdots in complexes with BicD^CC2-CC3 [2]: 21.3%
B1: Drosophila kinesin^ΔH2 (kinesin heavy chain lacking the hinge 2 region, amino acids K521‐D641) (natural protein, Drosophila melanogaster, UniProt P17210 1-975, looked up)
chain: MSAEREIPAEDSIKVVCRFRPLNDSEEKAGSKFVVKFPNNVEENCISIAGKVYLFDKVFKPNASQEKVYNEAAKSIVTDVLAGYNGTIFAYGQTSSGKTHTMEGVIGDSVKQGIIPRIVNDIFNHIYAMEVNLEFHIKVSYYEIYMDKIRDLLDVSKVNLSVHEDKNRVPYVKGATERFVSSPEDVFEVIEEGKSNRHIAVTNMNEHSSRSHSVFLINVKQENLENQKKLSGKLYLVDLAGSEKVSKTGAEGTVLDEAKNINKSLSALGNVISALADGNKTHIPYRDSKLTRILQESLGGNARTTIVICCSPASFNESETKSTLDFGRRAKTVKNVVCVNEELTAEEWKRRYEKEKEKNARLKGKVEKLEIELARWRAGETVKAEEQINMEDLMEASTPNLEVEAAQTAAAEAALAAQRTALANMSASVAVNEQARLATECERLYQQLDDKDEEINQQSQYAEQLKEQVMEQEELIANARREYETLQSEMARIQQENESAKEEVKEVLQALEELAVNYDQSNKKISEYEKDLGEYRLLISQHEARMKSLQESMREAENKKRTLEEQIDSLREECAKLKAAEHVSAVNAEEKQRAEELRSMFDSQMDELREAHTRQVSELRDEIAAKQHEMDEMKDVHQKLLLAHQQMTADYEKVRQEDAEKSSELQNIILTNERREQARKDLKGLEDTVAKELQTLHNLRKLFVQDLQQRIRKNVVNEESEEDGGSLAQKQKISFLENNLDQLTKVHKQLVRDNADLRCELPKLEKRLRCTMERVKALETALKEAKEGAMRDRKRYQYEVDRIKEAVRQKHLGRRGPQAQIAKPIRSGQGAIAIRGGGAVGGPSPLAQVNPVNS
modifications: biotin on the biotin tag

percent of Qdots in complexes with BicD^CC2-CC3 [2]: 6.6%
B2: kinesin^ΔH2 with added kinesin light chain (KLC) (complex)
heavy: B1 chain
light: MTQMSQDEIITNTKTVLQGLEALRVEHVSIMNGIAEVQKDNEKSDMLRKNIENIELGLSEAQVMMALTSHLQNIEAEKHKLKTQVRRLHQENAWLRDELANTQQKFQASEQLVAQLEEEKKHLEFMASVKKYDENQEQDDACDKSRTDPVVELFPDEENEDRHNMSPTPPSQFANQTSGYEIPARLRTLHNLVIQYASQGRYEVAVPLCKQALEDLERTSGHDHPDVATMLNILALVYRDQNKYKEAANLLNDALSIRGKTLGENHPAVAATLNNLAVLYGKRGKYKDAEPLCKRALEIREKVLGKDHPDVAKQLNNLALLCQNQGKYDEVEKYYQRALDIYESKLGPDDPNVAKTKNNLAGCYLKQGRYTEAEILYKQVLTRAHEREFGAIDSKNKPIWQVAEEREEHKFDNRENTPYGEYGGWHKAAKVDSPTVTTTLKNLGALYRRQGMFEAAETLEDCAMRSKKEAYDLAKQTKLSQLLTSNEKRRSKAIKEDLDFSEEKNAKP
modifications: biotin on the biotin tag

percent of Qdots in complexes with BicD^CC2-CC3 [2]: 16.4%
B3: homodimeric Drosophila kinesin‐1 (kinesin heavy chain, no bound light chains) (natural protein, Drosophila melanogaster, UniProt P17210 1-975, looked up)
chain: MSAEREIPAEDSIKVVCRFRPLNDSEEKAGSKFVVKFPNNVEENCISIAGKVYLFDKVFKPNASQEKVYNEAAKSIVTDVLAGYNGTIFAYGQTSSGKTHTMEGVIGDSVKQGIIPRIVNDIFNHIYAMEVNLEFHIKVSYYEIYMDKIRDLLDVSKVNLSVHEDKNRVPYVKGATERFVSSPEDVFEVIEEGKSNRHIAVTNMNEHSSRSHSVFLINVKQENLENQKKLSGKLYLVDLAGSEKVSKTGAEGTVLDEAKNINKSLSALGNVISALADGNKTHIPYRDSKLTRILQESLGGNARTTIVICCSPASFNESETKSTLDFGRRAKTVKNVVCVNEELTAEEWKRRYEKEKEKNARLKGKVEKLEIELARWRAGETVKAEEQINMEDLMEASTPNLEVEAAQTAAAEAALAAQRTALANMSASVAVNEQARLATECERLYQQLDDKDEEINQQSQYAEQLKEQVMEQEELIANARREYETLQSEMARIQQENESAKEEVKEVLQALEELAVNYDQKSQEIDNKNKDIDALNEELQQKQSVFNAASTELQQLKDMSSHQKKRITEMLTNLLRDLGEVGQAIAPGESSIDLKMSALAGTDASKVEEDFTMARLFISKMKTEAKNIAQRCSNMETQQADSNKKISEYEKDLGEYRLLISQHEARMKSLQESMREAENKKRTLEEQIDSLREECAKLKAAEHVSAVNAEEKQRAEELRSMFDSQMDELREAHTRQVSELRDEIAAKQHEMDEMKDVHQKLLLAHQQMTADYEKVRQEDAEKSSELQNIILTNERREQARKDLKGLEDTVAKELQTLHNLRKLFVQDLQQRIRKNVVNEESEEDGGSLAQKQKISFLENNLDQLTKVHKQLVRDNADLRCELPKLEKRLRCTMERVKALETALKEAKEGAMRDRKRYQYEVDRIKEAVRQKHLGRRGPQAQIAKPIRSGQGAIAIRGGGAVGGPSPLAQVNPVNS
modifications: biotin on the biotin tag (biotinylation occurs during expression in Sf9 cells)

percent of Qdots in complexes with BicD^CC2-CC3 [2]: 3.7%
B4: heterotetrameric kinesin^KLC (kinesin heavy chain with bound kinesin light chains) (complex)
heavy: B3 chain
light: B2 light
modifications: biotin on the biotin tag
